Residue numbers refer to the chain shown, from its start. Like-named read-outs stand apart in the source and are kept apart here.
Tests used:
[1] = molecular target: T1, recombinant human urokinase plasminogen activator receptor (HuPAR) protein (Homo sapiens, UniProt Q03405)
Target sequence in this assay (Q03405 23-305): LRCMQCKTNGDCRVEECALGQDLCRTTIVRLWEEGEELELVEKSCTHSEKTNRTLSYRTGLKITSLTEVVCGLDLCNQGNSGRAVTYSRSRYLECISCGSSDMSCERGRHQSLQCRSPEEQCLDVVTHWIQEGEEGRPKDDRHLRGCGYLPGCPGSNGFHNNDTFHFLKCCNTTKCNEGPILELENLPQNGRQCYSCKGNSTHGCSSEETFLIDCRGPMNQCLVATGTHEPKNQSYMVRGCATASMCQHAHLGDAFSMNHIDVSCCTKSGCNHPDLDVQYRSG

[2] = molecular target: T1, recombinant human urokinase plasminogen …; experiment: SPR; kinetic binding parameters (ka, kd, KD) of purified Nbs toward recombinant H, M or CuPAR antigens; conditions: both partners purified
Target sequence in this assay (Q03405 whole entry, looked up): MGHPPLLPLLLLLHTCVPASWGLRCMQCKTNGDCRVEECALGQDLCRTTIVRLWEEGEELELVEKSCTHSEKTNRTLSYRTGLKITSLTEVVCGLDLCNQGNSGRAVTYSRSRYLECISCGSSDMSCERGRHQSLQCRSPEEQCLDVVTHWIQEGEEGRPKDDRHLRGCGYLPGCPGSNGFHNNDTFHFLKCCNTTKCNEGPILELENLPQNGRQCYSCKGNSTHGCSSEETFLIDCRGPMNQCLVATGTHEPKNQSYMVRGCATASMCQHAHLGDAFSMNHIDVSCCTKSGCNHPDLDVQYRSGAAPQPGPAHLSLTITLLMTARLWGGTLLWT

[3] = molecular target: T2, recombinant murine urokinase plasminogen activator receptor (MuPAR) protein (Mus musculus, UniProt P35456); experiment: ELISA; BE-ELISA: bacterial extracts of Nb clones on H, M or CuPAR protein, against uncoated control; cross-reactivity screening; conditions: one partner purified
T2 construct: 'Extracellular domain' is said of the immunogen; also called murine uPAR

[4] = molecular target: T2, recombinant murine urokinase …; experiment: SPR; kinetic binding parameters (ka, kd, KD) of purified Nbs toward recombinant H, M or CuPAR antigens; conditions: both partners purified

T2 sequence (P35456 whole entry, looked up, the tested form may be a part): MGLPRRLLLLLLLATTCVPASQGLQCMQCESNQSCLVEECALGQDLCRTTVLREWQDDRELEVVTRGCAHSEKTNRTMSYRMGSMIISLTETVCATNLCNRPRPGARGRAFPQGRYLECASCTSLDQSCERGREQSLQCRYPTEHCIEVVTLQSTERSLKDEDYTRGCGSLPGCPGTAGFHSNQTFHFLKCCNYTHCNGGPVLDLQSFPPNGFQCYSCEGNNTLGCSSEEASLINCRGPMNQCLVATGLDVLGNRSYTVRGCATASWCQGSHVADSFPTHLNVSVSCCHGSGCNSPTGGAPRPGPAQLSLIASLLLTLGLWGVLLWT

B1: 5A5 (Nb 16) (VHH)
VHH: QVQLQESGGGLVQPGGSLRLSCAISGFTLDYYGIGWFRQAPGKEREGVSCISSSDGSTYYADSVKGRFTISRDNAKNTVYLQMNSLKPEDTAVYYCATRGASCYYSGSYSLGYDYWGQGTQVTVSS
Kd [1]: 3 nM

B2: 5H2 (Nb 18) (VHH)
VHH: B1 VHH with V12A, A23T, I24A, L29S, S106T
Kd [1]: 4.7 nM

B3: Nb 15 (VHH)
VHH: B1 VHH with L11W, I24A, S106T
notes: Nanobody from a llama immunized with human and murine uPAR; The clone in bacterial extracts came before recloning into the expression vector, so its tags may differ from the purified form; also called anti-HuPAR Nb 15; lead anti-HuPAR/CuPAR Nanobody; source: E. coli WK6, purified from the periplasm (osmotic shock, IMAC, SEC); bacterial extracts for ELISA and SPR off-rate screening
Kd [2]: < 10 nM | binding result [3]: no binding

B4: 5B7 (Nb 17) (VHH)
VHH: B1 VHH with I24V, F27S, D30E, S106T
Kd [1]: 2.3 nM

B5: Nb 13 (VHH)
VHH: QVQLQESGGGLVQSGGSLRLSCAVSGIGFVYYAMRWWRQAPGKERELVAGITGASGNTNYAESVKDRFTISRDNASNTVYLQMNSLKPEDTAVYYCNAAPLIRFGPPKDYWGQGTQVTVSS
notes: Nb 13 is the only member of its family; Nanobody from a llama immunized with human and murine uPAR; also called lead anti-MuPAR Nanobody; source: E. coli WK6, purified from the periplasm (osmotic shock, IMAC, SEC)
Kd [4]: < 10 nM

— publication PMC11321701, “Generation and Characterization of Novel Pan‐Cancer Anti‐uPAR Fluorescent Nanobodies as Tools for Image‐Guided Surgery” (Advanced Science, 2024)
